Test results taken from patent US20060110801A1 (WISCONSIN ALUMNI RESEARCH FOUNDATION, published 2006).

Target: GST (UniProt P08515 1-218 = GST)
Assay: pull-down on glutathione sepharose, Western blot with anti-T7

Chain of GST (P08515 whole entry): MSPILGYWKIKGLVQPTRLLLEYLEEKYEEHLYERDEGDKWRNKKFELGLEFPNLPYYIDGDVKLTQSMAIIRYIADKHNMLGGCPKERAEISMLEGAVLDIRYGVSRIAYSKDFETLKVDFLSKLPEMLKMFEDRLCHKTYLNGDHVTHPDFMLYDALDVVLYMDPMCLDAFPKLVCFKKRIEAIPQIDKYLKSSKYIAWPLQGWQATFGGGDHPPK

B1: T7-ATR41-227 (fusion protein having a hexahistidine tag, a T7 tag, and amino acids 41 to 227 of ATR) (receptor)
chain: GGFDLYFILDKSGSVLHHWNEIYYFVEQLAHKFISPQLRMSFIVFSTRGTTLMKLTEDREQIRQGLEELQKVLPGGDTYMHEGFERASEQIYYENRQGYRTASVIIALTDGELHEDLFFYSEREANRSRDLGAIVYCVGVKDFNETQLARIADSKDHVFPVNDGFQALQGIIHSILKKSCIEILAAE
notes: also called the I domain; extracellular fragment of ATR
binding result: no binding
